These results are taken from article PMC3135652 (Journal of immunology (Baltimore, Md. : 1950), 2009).

The assay addresses T1, Recombinant truncated p115 (p115 702-962), carboxy-terminal histidine tag (human, UniProt O60763 702-962).
T1 sequence (looked up): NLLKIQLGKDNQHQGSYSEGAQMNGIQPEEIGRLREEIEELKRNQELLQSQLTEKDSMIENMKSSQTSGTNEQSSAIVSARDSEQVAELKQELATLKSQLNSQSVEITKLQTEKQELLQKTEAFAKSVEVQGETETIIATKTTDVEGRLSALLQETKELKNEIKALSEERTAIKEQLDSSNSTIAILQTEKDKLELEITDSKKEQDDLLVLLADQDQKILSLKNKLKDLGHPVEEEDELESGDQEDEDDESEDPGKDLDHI
Description: ELISA.

B1: Biotinylated recombinant human MIF (natural protein, UniProt P14174 1-115, looked up)
chain: MPMFIVNTNVPRASVPDGFLSELTQQLAQATGKPPQYIAVHVVPDQLMAFGGSSEPCALCSLHSIGKIGGAQNRSYSKLLCGLLAERLRISPDRVYINYYDMNAANVGWNNSTFA
modifications: biotin (Biotin Protein Labeling Kit, Roche)
Consider B1, for which the binding result is listed as “binds”.
